Sequences and labels used below:
B1: WtR4-28-854/CDH2 (dsDNA)
DNA 1: ATGCGACCTGCAGGCATGCCA
DNA 2: TGGCATGCCTGCAGGTCGCAT
B2: WtR1-15-286/IGSF11 (dsDNA)
DNA 1: TTTGCTGCCTTTGTCCTGTAG
DNA 2: CTACAGGACAAAGGCAGCAAA
B3: MtR3-36-648/HPSE (dsDNA)
DNA 1: AAAAGTATTCAGGGCCCATGA
DNA 2: TCATGGGCCCTGAATACTTTT
B4: MtR4-28-854/CDH2 (dsDNA)
DNA 1: ATGCGACCCGCAAATATGCCA
DNA 2: TGGCATATTTGCGGGTCGCAT
B5: WtR3-36-676/HPSE (dsDNA)
DNA 1: AATGTGGCCCTGGTCACTTAG
DNA 2: CTAAGTGACCAGGGCCACATT
B6: WtR3-36-648/HPSE (dsDNA)
DNA 1: AAAAGTGCCCAGAGCCCATGA
DNA 2: TCATGGGCTCTGGGCACTTTT
B7: MtR1-15-286/IGSF11 (dsDNA)
DNA 1: TTTGCTATTTTTATCCTGTAG
DNA 2: CTACAGGATAAAAATAGCAAA
B8: MtR3-36-676/HPSE (dsDNA)
DNA 1: AATGTGATTCTGATCACTTAG
DNA 2: CTAAGTGATCAGAATCACATT
B9: HMT (dsDNA)
DNA 1: AACGGACCGCCCGCGGCCCGT
DNA 2: ACGGGCCGCGGGCGGTCCGTT

The target of the first series is T1, GST-AP-2γ (UniProt Q92754 1-450). Briefly: EMSA; 10 mM HEPES pH 8.0, 60 mM KCl, 4 mM MgCl2, 0.1 mM EDTA, 100 μg/ml BSA, 0.25 mM DTT, 10% glycerol, 37°C 20 min; 5 pmol probe, 50 pmol protein in 15 μl; 6% native PAGE. The settings on record: protein: recombinant; tags: GST (N-terminal, pGEX-4T-2); chain copies: 2; label: 32P 5' end of forward strand; blunt.
T1 sequence (Q92754 whole entry): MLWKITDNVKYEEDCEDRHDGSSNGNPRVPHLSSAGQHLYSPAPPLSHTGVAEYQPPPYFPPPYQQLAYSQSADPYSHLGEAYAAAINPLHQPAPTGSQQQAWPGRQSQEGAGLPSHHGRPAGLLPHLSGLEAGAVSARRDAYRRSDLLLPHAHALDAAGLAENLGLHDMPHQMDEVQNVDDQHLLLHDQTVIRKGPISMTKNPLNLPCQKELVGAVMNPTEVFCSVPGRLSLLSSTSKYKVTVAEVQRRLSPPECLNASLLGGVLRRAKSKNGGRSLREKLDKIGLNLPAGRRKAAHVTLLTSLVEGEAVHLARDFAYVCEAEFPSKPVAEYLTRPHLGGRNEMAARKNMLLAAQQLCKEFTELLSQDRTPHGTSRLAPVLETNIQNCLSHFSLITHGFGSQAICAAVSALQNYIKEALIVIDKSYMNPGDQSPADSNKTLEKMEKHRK
Regarding B1, the binding result is “binds”. In the case of B2, the binding result is “binds”. Still for that read-out and setting: the result for B3 reads “no binding”; that for B4, “no binding”; that for B5, “no binding”. Still for that read-out and setting: the entry for B6 is “binds”. Still for that read-out and setting: the entry for B7 is “no binding”. For B8, the binding result is given as “no binding”.

A further series concerns the target T1, GST-AP-2γ. Briefly: competition; 10- or 50-fold excess unlabeled vs wild-type HPSE-648, CDH2-854, IGSF11-286 probes; markedly decreased binding; 10 mM HEPES pH 8.0, 60 mM KCl, 4 mM MgCl2, 0.1 mM EDTA, 100 μg/ml BSA, 0.25 mM DTT, 10% glycerol, 37°C 20 min; 5 pmol probe, 50 pmol protein in 15 μl; 6% native PAGE. The settings on record: protein: recombinant; tags: GST (N-terminal, pGEX-4T-2); chain copies: 2; blunt.
Consider B9, for which the binding result is recorded as “binds”.

For the origin of these results see article PMC3224728, “Identification of target genes of transcription factor activator protein 2 gamma in breast cancer cells”.
